Test results: patent publication US20240342207, “MODIFIED NUCLEIC ACID COMPOSITIONS AND ASSOCIATED METHODS FOR TREATMENT OF PHENYLKETONURIA” (BOARD OF REGENTS, THE UNIVERSITY OF TEXAS SYSTEM, published 2024)

Experiments:
Assay in all cases: EMSA; one of 13 of 17 binding mutants; affinity not decreased
Details in all cases: tags: His-tag, E. coli; stem-loop
PAH F39L = biological target: T1, PAH F39L (Homo sapiens, UniProt P00439 P00439:1-452, F39L)
T1 sequence: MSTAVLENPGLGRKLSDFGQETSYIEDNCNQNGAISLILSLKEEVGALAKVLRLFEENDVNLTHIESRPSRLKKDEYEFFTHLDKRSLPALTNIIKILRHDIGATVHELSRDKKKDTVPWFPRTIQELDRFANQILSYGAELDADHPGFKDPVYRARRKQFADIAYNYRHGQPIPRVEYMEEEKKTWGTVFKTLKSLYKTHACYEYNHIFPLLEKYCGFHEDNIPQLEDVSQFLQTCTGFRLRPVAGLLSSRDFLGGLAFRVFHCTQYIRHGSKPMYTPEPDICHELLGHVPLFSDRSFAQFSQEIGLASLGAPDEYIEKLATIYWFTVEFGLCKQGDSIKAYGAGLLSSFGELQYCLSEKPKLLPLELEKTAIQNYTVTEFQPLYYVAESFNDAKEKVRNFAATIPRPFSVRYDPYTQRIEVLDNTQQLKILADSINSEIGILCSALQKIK

PAH P281L = biological target: T2, PAH P281L (Homo sapiens, UniProt P00439 P00439:1-452, P281L)
T2 sequence: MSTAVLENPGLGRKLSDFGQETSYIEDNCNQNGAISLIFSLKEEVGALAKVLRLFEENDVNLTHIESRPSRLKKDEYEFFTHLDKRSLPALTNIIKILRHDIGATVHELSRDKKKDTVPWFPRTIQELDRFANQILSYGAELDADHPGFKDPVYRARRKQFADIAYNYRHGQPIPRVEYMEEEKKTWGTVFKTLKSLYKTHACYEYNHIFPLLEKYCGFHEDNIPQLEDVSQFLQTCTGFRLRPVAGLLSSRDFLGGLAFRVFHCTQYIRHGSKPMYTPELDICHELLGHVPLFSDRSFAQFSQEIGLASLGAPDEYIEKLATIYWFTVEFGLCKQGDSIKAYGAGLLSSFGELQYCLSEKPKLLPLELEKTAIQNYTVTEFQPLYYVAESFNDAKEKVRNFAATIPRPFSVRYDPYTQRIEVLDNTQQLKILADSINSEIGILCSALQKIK

PAH I318T = biological target: T3, PAH I318T (Homo sapiens, UniProt P00439 P00439:1-452, I318T)
T3 sequence: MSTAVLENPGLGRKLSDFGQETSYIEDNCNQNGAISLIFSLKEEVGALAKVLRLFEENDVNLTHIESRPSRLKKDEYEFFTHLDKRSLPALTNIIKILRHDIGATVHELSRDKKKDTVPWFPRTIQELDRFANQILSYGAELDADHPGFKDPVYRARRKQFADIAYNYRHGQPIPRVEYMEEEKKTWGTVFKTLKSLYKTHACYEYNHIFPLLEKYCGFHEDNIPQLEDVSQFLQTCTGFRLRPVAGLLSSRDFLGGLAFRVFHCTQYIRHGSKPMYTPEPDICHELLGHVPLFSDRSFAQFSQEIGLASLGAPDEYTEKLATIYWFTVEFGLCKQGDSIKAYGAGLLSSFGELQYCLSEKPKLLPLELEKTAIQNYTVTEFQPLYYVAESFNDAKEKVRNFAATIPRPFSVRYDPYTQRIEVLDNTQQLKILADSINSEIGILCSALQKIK

PAH R408W = biological target: T4, PAH R408W (Homo sapiens, UniProt P00439 P00439:1-452, R408W)
T4 sequence: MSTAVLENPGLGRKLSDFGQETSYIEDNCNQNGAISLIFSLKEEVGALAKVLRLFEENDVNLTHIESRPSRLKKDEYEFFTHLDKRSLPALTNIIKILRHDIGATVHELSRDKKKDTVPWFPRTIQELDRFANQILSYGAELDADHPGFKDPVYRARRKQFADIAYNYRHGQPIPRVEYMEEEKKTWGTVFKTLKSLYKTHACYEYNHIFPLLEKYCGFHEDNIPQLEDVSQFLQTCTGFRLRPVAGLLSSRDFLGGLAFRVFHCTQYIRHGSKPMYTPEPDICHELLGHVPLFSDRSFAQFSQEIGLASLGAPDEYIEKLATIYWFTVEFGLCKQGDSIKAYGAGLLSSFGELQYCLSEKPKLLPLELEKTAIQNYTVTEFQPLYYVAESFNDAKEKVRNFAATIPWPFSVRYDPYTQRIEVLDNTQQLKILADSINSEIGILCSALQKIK

PAH A300S = biological target: T5, PAH A300S (Homo sapiens, UniProt P00439 P00439:1-452, A300S)
T5 sequence: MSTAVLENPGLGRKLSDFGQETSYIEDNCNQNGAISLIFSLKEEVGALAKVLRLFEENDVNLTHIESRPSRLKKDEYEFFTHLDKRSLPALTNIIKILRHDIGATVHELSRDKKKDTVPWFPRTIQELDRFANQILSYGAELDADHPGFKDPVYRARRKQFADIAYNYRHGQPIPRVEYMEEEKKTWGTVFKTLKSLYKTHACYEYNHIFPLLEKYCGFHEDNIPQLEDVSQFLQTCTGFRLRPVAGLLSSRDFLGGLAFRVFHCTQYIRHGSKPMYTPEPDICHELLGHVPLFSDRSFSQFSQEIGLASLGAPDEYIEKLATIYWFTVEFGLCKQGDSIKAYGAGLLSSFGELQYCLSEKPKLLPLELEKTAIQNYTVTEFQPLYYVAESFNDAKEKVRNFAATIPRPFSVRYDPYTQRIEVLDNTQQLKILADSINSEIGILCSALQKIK

Measured: binding result

CAAAAUGCAUAUGUAUCUUUG (ssRNA) [HULC 181-201 mimic]
binds: PAH F39L | PAH P281L | PAH I318T | PAH R408W | PAH A300S
